In PMC4418518 (2015) one finds Kd data, which are given here for 1 molecule.

Read-outs that look alike come from different tables or passages of the source.

As usually defined, the Kd is a measure of binding affinity in units of concentration. A higher Kd goes with weaker binding.

Holding throughout (assay): co-sedimentation
The target in assay [1] is T1, F-actin (Saccharomyces cerevisiae, UniProt P60010).
The target of the next assay is actin (Saccharomyces cerevisiae, UniProt P60010).
The target in assay [2] is T1, F-actin. The source holds these as a separate data set.

B1: Vinculin tail (VT) 881-1066 (protein)
chain: KDEEFPEQKAGEAINQPMMMAARQLHDEARKWSSKPVTVINEAAEAGVDIDEEDDADVEFSLPSDIEDDYEPELLLMPTNQPVNQPILAAAQSLHREATKWSSKGNDIIAAAKRMALLMAEMSRLVRGGSGNKRALIQCAKDIAKASDEVTRLAKEVAKQCTDKRIRTNLLQVCERIPTISTQLKI
With B1, the figures for the Kd with F-actin [1], with actin and in the assay with F-actin [2] were 1310 nM, 370 nM and 1480 nM, respectively.
